From article doi:10.1101/359695

Tests used:
[1] = target: reconstituted 26S proteasome (S. cerevisiae), all wild-type components (S. cerevisiae) (UniProt P33299)
[2] = target: reconstituted 26S proteasome with Cy3-labeled base (Rpt1-I191AzF-Cy3) (S. cerevisiae) (UniProt P33299); test: FRET or BRET

FRET amplitude of tail insertion, percent of that of the 35-residue tail [2] [%] | Substance | also measured
– | ubiquitinated 5-FAM-titin-I27^V15P-35 (from UniProt P0CG63 1-76) | KM of multiple-turnover degradation (Michaelis-Menten, anisotropy of 5-FAM) [1]: 0.22 µM
16 | ubiquitinated titin-I27^V15P-1 (1 AA tail), acceptor-labeled (from UniProt P0CG63 1-76) | –
25 | ubiquitinated titin-I27^V15P-11 (11 AA tail), acceptor-labeled (from UniProt P0CG63 1-76) | –
– | ubiquitinated titin-I27^V15P-35 modified with Cy5 on its unstructured tail (from UniProt P0CG63 1-76) | time constant of tail insertion (FRET change) [2]: 1.6 s
